The values below are quoted from earlier work in PMC11053944.

By pKd is commonly meant the Kd on a negative log10 scale, so that one unit is a factor of ten.

pKd: −log10 of the molar value.

The target of series [1] is Sba1 (Saccharomyces cerevisiae) (UniProt P28707). The series can be described thus: SPR. A general note: SPR reads the build-up and loss of mass on a sensor chip optically.
Series [2] has the same target. Nature of the series: ITC.

Chain of Sba1 (Saccharomyces cerevisiae) (P28707 2-216): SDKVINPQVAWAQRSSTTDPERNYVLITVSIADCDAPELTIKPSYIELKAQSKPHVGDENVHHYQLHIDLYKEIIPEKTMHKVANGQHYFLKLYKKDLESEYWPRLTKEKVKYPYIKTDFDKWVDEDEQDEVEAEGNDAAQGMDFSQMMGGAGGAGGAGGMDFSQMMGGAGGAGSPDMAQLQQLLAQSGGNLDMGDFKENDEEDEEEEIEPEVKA

Consider HSP90 (from UniProt P02829), for which the figures for the pKd in series [1] and in series [2] were 6.27 and 5.76, respectively.
